In article PMC10127577 (Journal of Bacteriology, 2023):

T1: cleaved, mature CDTb (from limited trypsinization of proCDTb) (Clostridioides difficile)
T1 chain: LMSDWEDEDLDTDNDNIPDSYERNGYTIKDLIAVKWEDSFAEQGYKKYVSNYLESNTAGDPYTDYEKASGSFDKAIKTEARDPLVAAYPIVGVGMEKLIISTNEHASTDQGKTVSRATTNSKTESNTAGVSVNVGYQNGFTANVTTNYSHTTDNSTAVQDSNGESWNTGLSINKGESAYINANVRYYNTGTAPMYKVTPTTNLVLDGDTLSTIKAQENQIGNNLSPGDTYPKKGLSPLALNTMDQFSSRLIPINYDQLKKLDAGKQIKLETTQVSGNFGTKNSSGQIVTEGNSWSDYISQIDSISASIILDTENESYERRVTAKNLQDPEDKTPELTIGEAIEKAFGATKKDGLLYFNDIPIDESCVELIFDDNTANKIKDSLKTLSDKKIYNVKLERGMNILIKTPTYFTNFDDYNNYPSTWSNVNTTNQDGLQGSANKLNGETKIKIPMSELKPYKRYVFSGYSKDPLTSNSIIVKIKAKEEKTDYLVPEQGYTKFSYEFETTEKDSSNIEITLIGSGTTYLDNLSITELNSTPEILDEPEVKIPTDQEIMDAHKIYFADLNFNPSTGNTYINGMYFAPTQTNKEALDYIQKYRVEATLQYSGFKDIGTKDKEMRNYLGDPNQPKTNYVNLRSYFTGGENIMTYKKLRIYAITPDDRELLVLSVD

B1: BINTOXB/9 Fab (Fab, V domains shown)
VH: QVQLQQSGAELARPGASVKMSCKASGYTFTSYTMHWVKQRPGQGLEWIGYINPSNDYTSYNQKFKDKATLTADKSSSTAYMQLSSLTSEDSAVYYCARCWGYDPYYFDYWGQGTTLTVSS
VL: DIVMSQSPSLLAVSAGEKVTMSCKSSQSLLNSRTRKNYLAWYQQKPGQSPKVLIYWASTRESGVPDRFTGSGSGTDFTLTISSVQAEDLAVYYCKQSYNLLTFGAGTKLELK
B2: BINTOXB/22 Fab (Fab, V domains shown)
VH: QIQLVQSGPELKKPGETVKISCKASGYTFTNYGMNWVKQAPGKDLKWMGWMSTYTGEPTYADDFKGRFAFSLETSASTAYLQINNLKNEDMATYFCARRGNYLSFDYWGQGTTLTVSS
VL: DIVMTQSHKFMSTSVGDRVSITCKASQDVSTAVGWYQQKPGQSPKLLIYSASYRYTGVPDRFTGSGSGTDFTFTISSVQAEDLAVYYCQQHYSPPFTFGSGTELEIK

Assays:
[1] = molecular target: T1, cleaved, mature CDTb (from limited …); assay: cell-based or functional assay
[2] = molecular target: T2, CDTb D4 fragment, CDTb residues 753 to 876 (Clostridioides difficile, UniProt O32739); assay: crystal structure; details: both partners purified
T2 construct: pET22b construct; source: E. coli BL21(DE3), purified (Ni-NTA, SEC); not shown: His6, C-terminal, kept

[3] = molecular target: T3, CDTb protoxin (proCDTb), CDTb residues 43 to 876 (Clostridioides difficile, UniProt O32739); assay: SPR; proCDTb with C-terminal 6xHis immobilised (~200 RU) on NTA chip, Biacore X100; Fab flowed at 0.1-25 nM; 10 mM HEPES pH 8.0, 150 mM NaCl, 6 mM CaCl2, 0.05% Tween 20; association 180 s, dissociation 600 s; 1:1 binding model; details: both partners purified
T3 construct: pET24b construct for biophysical and structural studies; A different construct (pGEX-6p1, GST cleaved, C-terminal 6xHis) was used for immunisation and the neutralisation assay; also called proCTDb; source: E. coli BL21(DE3), purified (Ni-NTA, anion exchange, SEC); not shown: His6, C-terminal, kept

[4] = molecular target: T2, CDTb D4 fragment, CDTb residues 753 to …; assay: BLI; details: both partners purified

| Binder | EC50 of protection of HT29 cells from CDT (CDTa 25 ng/mL + cleaved, monomeric CDTb 75 ng/mL) cytotoxicity, Hoechst-stained surface, BINTOXB/9 IgG; blocks CDTb oligomerization (m7 with m7) [1] [µg/mL] | binding result [2] | Kd [3] [nM] | EC50 of protection of HT29 cells from CDT (CDTa 25 ng/mL + cleaved, monomeric CDTb 75 ng/mL) cytotoxicity, Hoechst-stained surface, BINTOXB/22 IgG; blocks CDTb oligomerization (m7 with m7) [1] [µg/mL] | binding result [4] |
| --- | --- | --- | --- | --- | --- |
| B1 | 13 | binds | 0.73 | – | – |
| B2 | – | – | 16.3 | 21 | no binding (tested: 200 nM) |
